Measured values published in patent publication US7244563B2, “Genes for plant fatty acid modifying enzymes associated with conjugated double bond formation” (E. I. du Pont de Nemours and Company, priority 2002, dated 2007).

Assays:
[1] = tested on: Tobacco (Nicotiana tabacum L. cv Xanthi) callus; assay: Fatty acid analysis (GC, GC-MS) of transgenic tobacco callus expressing the cDNA; assay type: cell-based; conditions: CaMV 35S promoter
Source text: The cDNAs encoding fatty acid modifying enzymes associated with conjugated double bond synthesis in seeds of Impatiens balsamina and Momordica charantia were introduced into a plant expression vector designated pML63. Vector pML63 contains the uidA gene (which encodes the GUS enzyme) operably linked to the CaMV35S promoter and 3′ NOS sequence. pML63 is modified from pMH40 to produce a minimal 3′ NOS terminator fragment. pMH 40 is described in WO 98/16650 which was published on Apr. 23, 1998, the disclosure of which are hereby incorporated by reference. Using standard techniques familiar to those skilled in the art, the 770 base pair terminator sequence contained in pMH40 was replaced with a new 3′ NOS terminator sequence comprising nucleotides 1277 to 1556 of the sequence published by Depicker et al. (1982, J. Appl. Genet. 1:561–574). A chimeric gene was constructed comprising cDNAs encoding fatty acid modifying enzymes associated with conjugated double bond synthesis in seeds of Impatiens balsamina and Momordica charantia in sense orientation with respect to the cauliflower mosaic virus 35S promoter that is located 5′ to the cDNA fragment and termination sequences from the nopaline synthase (NOS) that are located 3′ to the cDNA fragment. The cDNAs for the Impatiens polypeptide was introduced in the NcoI and EcoRI sites of the vector pML63. The cDNA for the Momordica polypeptide was introduced into the NcoI and SmaI sites of the vector pML63. The NcoI and EcoRI sites flanking the Impatiens cDNA were generated by PCR amplification of the cDNAs using oligonucleotide primers that contained these restriction sites (SEQ ID NO:7 and SEQ ID NO:8, for the sense and antisense oligonucleotides, respectively). PCR amplification was conducted using the Pfu DNA polymerase. The NcoI site flanking the 5′ end of the Momordica cDNA was generated by PCR amplification in a similar manner (SEQ ID NO:9 and SEQ ID NO:10). The 3′ end of the PCR-generated Momordica cDNA was blunt-ended which allowed for cloning into the SmaI site of the vector pML63. The resulting fusions of the cauliflower mosaic virus 35S promoter with the cDNAs encoding fatty acid modifying enzymes associated with conjugated double bond synthesis in seeds of Impatiens balsamina or Momordica charantia and NOS termination sequences were released from the vector pML63 by digestion with XbaI. The resulting XbaI fragment was ligated into the corresponding site of the binary vector pZS199 The vector pZS199 contains the following elements: (1) the chimeric gene nopaline synthase/neomycin phosphotransferase as a selectable marker for transformed plant cells (Brevan et al. (1984) Nature 304:184–186), (2) the left and right borders of the T-DNA of the Ti plasmid (Brevan et al. (1984) Nucl. Acids Res. 12:8711–8720), (3) the E. coli lacZ-complementing segment (Vieria and Messing (1982) Gene 19:259–267) with unique restriction endonuclease sites for EcoRI, KpnI, BamHI, XbaI and SalI, (4) the bacterial replication origin from the Pseudomonas plasmid pVS1 (Itoh et al. (1984) Plasmid 11:206–220), and (5) the bacterial neomycin phosphotransferase gene from Tn5 (Berg et al. (1975) Proc. Natl. Acad. Sci. U.S.A. 72:3628–3632) as a selectable marker for transformed A. tumefaciens. The nopaline synthase promoter in the plant selectable marker was replaced by the 35S promoter (Odell et al. (1985) Nature, 313:810–813) by a standard restriction endonuclease digestion and ligation strategy.
Gene fusions of the Impatiens balsamina or Momordica charantia cDNAs with the cauliflower mosaic virus 35S promoter and the NOS termination sequences in vector pZS199 were introduced into Agrobacterium tumefaciens strain LBA4404. […]

soybean embryos = assay: Fatty acid composition of transgenic soybean somatic embryos (GC, GC-MS); assay type: cell-based; conditions: for 16:0 / 18:0 / 18:1 / 18:2 / 18:3 / α-Parinaric / Eleostearic / Other: single soybean embryo; for 16:0 / 18:0 / 18:1 / 18:2 / 18:3 / α-Parinaric: % of total oil weight; for Eleostearic: includes cis-trans isomers of α-eleostearic acid (<1.0 wt %); for Other: primarily 20:0, 20:1, 22:0, and 22:1
Experimental: Gene fusions of the Impatiens balsamina or Momordica charantia cDNAs with the conglycinin promoter and phaseolin termination sequences in vector pKS67 were introduced into soybean embryos using the particle bombardment method of transformation. To induce somatic embryos, cotyledons, 3–5 mm in length dissected from surface sterilized, immature seeds of a soybean cultivar A2872 or JACK-910 were cultured in the light or dark at 26° C. on an appropriate agar medium for 6–10 weeks. Somatic embryos that produce secondary embryos were then excised and placed into a suitable liquid medium. After repeated selection for clusters of somatic embryos that multiplied as early, globular staged embryos, the suspensions were maintained as described below.
Soybean embryogenic suspension cultures were then transformed with the vector pKS67 containing the Impatiens or Momordica cDNA for fatty acid modifying enzymes associated with conjugated double synthesis by the method of particle gun bombardment (Klein et al. (1987) Nature (London) 327:70, U.S. Pat. No. 4,945,050). A DuPont Biolistic™ PDS1000/HE instrument (helium retrofit) was used for these transformations.
Five to seven days post bombardment, the liquid media was exchanged with fresh media, and eleven to twelve days post bombardment with fresh media containing […] hygromycin. This selective media was refreshed weekly. Seven to eight weeks post bombardment, green, transformed tissue was observed growing from untransformed, necrotic embryogenic clusters. Isolated green tissue was removed and inoculated into individual flasks to generate new, clonally propagated, transformed embryogenic suspension cultures. Each new line was treated as an independent transformation event. These suspensions were then subcultured and maintained as clusters of immature embryos.
Transgenic soybean embryos selected and maintained in this manner were analyzed for eleostearic acid and parinaric acid content using methods described in Example 4 (Table 1). Individual embryos expressing either the Impatiens or Momordica fatty acid modifying enzyme for conjugated double bond synthesis were homogenized in 1% (w/v) sodium methoxide in methanol. Fatty acid methyl esters resulting from this transesterification step were analyzed by both GC and GC-MS as described in Example 4. Methyl esters of eleostearic and parinaric acids were identified in transgenic soybean extracts by comparison of retention times and mass spectra with those of fatty acid methyl esters prepared from seeds of Impatiens balsamina and Momordica charantia. […] In soybean embryos expressing the Momordica enzyme, eleostearic acid was detected principally as α-eleostearic acid with lesser amounts of at least two other cis-trans isomers of eleostearic acid. […]

[2] = soybean embryos, β-conglycinin promoter, highest amount

Molecule	eleostearic acid accumulated, relative to total fatty acid [1] [%]	parinaric acid accumulated, relative to total fatty acid [1] [%]	16:0 (soybean embryos; independent transgenic line 1) [Weight %]	18:0 (soybean embryos; independent transgenic line 1) [Weight %]	18:1 (soybean embryos; independent transgenic line 1) [Weight %]	18:2 (soybean embryos; independent transgenic line 1) [Weight %]	18:3 (soybean embryos; independent transgenic line 1) [Weight %]	α-Parinaric (soybean embryos; independent transgenic line 1) [Weight %]	16:0 (soybean embryos; independent transgenic line 2) [Weight %]	18:0 (soybean embryos; independent transgenic line 2) [Weight %]	18:1 (soybean embryos; independent transgenic line 2) [Weight %]	18:2 (soybean embryos; independent transgenic line 2) [Weight %]	18:3 (soybean embryos; independent transgenic line 2) [Weight %]	α-Parinaric (soybean embryos; independent transgenic line 2) [Weight %]	16:0 (soybean embryos; independent transgenic line 3) [Weight %]	18:0 (soybean embryos; independent transgenic line 3) [Weight %]	18:1 (soybean embryos; independent transgenic line 3) [Weight %]	18:2 (soybean embryos; independent transgenic line 3) [Weight %]	18:3 (soybean embryos; independent transgenic line 3) [Weight %]	α-Parinaric (soybean embryos; independent transgenic line 3) [Weight %]	other results
ImpFad2: Impatiens balsamina fatty acid modifying enzyme associated with conjugated double bond formation, SEQ ID NO:2, cDNA SEQ ID NO:1 (protein, listed as Impatiens balsamina) MGEVGPTNRTKTKLDKQQESENRVPHEPPPFTLSDLKKAIPPHCFERSLVKSFYHVIHDIIILSFFYYVAANYIPMLPQNLRYVAWPIYWAIQGCVQLGILVLGHECGHHAFSDYQWVDDMVGFVLHSSQLIPYFSWKHSHRRHHSNTASIERDEVYPPAYKNDLPWFAKYLRNPVGRFLMIFGALLFGWPSYLLFNANGRLYDRFASHYDPQSPIFNNRERLQVIASDVGLVFAYFVLYKIALAKGFVWLICVYGVPYVILNGLIVLITFLQHTHPNLPRYDLSEWDWLRGALSTVDRDYGMLNKVFHNVTDTHLVHHLFTTMPHYRAKEATEVIKPILGDYYKFDDTPFLKALWKDMGKCIYVESDVPGKNKGVYWYNNDI	3.4	1.7	13.3	4.2	20.8	46.3	9.2	2.2	13.2	2.5	12.2	53.8	12.5	2.0	13.5	3.1	11.1	53.0	17.3	1.0	Eleostearic (soybean embryos; transgenic line 1): 3.0 Weight %; Other (soybean embryos; transgenic line 1): <1.0 Weight %; Eleostearic (soybean embryos; transgenic line 2): 2.8 Weight %; Other (soybean embryos; transgenic line 2): <1.0 Weight %; Eleostearic (soybean embryos; transgenic line 3): 0.6 Weight %; Other (soybean embryos; transgenic line 3): <1.0 Weight %; α-eleostearic acid of the total fatty acids (soybean embryos; [2]): ≤ 3%; α-parinaric acid of the total fatty acids (soybean embryos; [2]): ≤ 2%
MomFad2: Momordica charantia fatty acid modifying enzyme associated with conjugated double bond formation, SEQ ID NO:4, cDNA SEQ ID NO:3 (protein, listed as Momordica charantia) MGGRGAIGVLRNGGGPKKKMGPGQGLGPGERITHARPPFSISQIKKAIPPHCFQRSLRRSFSYLLSDIALVSAFYYVADTYFHRLPHPLLHYLAWPVYWFCQGAVLTGMWGIAHDCGHHAFSDYQLVDDVVGFLIHSLVFVPYFSFKISHRRHHSNTSSVDRDEVFVPKPKAKMPWYFKYLTNPPARVFIIFITLTLGWPMYLTFNISGRYYGRFTSHFDPNSPIFSPKERVLVHISNAGLVATGYLLYRIAMAKGVGWLIRLYGVPLIVLNACVVLITALQHTHPSFPYYDSTEWDWLRGNLVTVDRDYGPIMNRVFHHITDTHVVHHLFPSMPHYNGKEATVAAKRILGEYYQFDGTPIWKAAWREFRECVYVEPDEDDGATSGSSSKGVFWYHNKL	1.7	1.1	6.9	2.4	43.1	24.1	3.1	1.0	7.9	2.1	36.8	29.4	5.1	1.0	8.4	2.3	41.9	25.1	6.1	1.8	Eleostearic (soybean embryos; transgenic line 1): 17.4 Weight %; Other (soybean embryos; transgenic line 1): <2.0 Weight %; Eleostearic (soybean embryos; transgenic line 2): 15.9 Weight %; Other (soybean embryos; transgenic line 2): <2.0 Weight %; Eleostearic (soybean embryos; transgenic line 3): 12.4 Weight %; Other (soybean embryos; transgenic line 3): <2.0 Weight %; eleostearic acid of the total fatty acids (soybean embryos; [2]): ≤ 16.5%; α-parinaric acid of the total fatty acids (soybean embryos; [2]): ≤ 1.5%
